According to patent EP3069729A1 (Sequoia Sciences, Inc., dated 2016):

Target: T1, horseradish peroxidase (HRP) (UniProt P00433 31-338)
T1 sequence: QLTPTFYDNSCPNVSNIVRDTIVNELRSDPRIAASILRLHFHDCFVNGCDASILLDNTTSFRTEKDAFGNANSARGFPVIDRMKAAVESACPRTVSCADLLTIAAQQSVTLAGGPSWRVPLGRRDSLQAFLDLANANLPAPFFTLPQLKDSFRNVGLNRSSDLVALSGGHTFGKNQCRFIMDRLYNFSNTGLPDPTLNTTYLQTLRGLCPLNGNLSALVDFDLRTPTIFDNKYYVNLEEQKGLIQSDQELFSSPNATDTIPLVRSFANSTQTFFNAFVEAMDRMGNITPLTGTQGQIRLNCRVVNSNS
Assay: in vitro mannose binding potency assay; inferred from the Q133K FimCH complex

B1: FimC (other)
chain: GVALGATRVIYPAGQKQVQLAVTNNDENSTYLIQSWVENADGVKDGRFIVTPPLFAMKGKKENTLRILDATNNQLPQDRESLFWMNVKAIPSMDKSKLTENTLQLAIISRIKLYYRPAKLALPPDQAAEKLRFRRSANSLTLINPTPYYLTVTELNAGTRVLENALVPPMGESAVKLPSDAGSNITYRTINDYGALTPKMTGVME
notes: also called FimC protein
B1: no binding.
